# Bridge positions count the residues as written; N and C are the ends. Square brackets hold non-standard residues; d marks the D form. Trp(7-Me) = Cc1cccc2c(C[C@H](N)C(=O)O)c[nH]c12; 2Nal = N[C@@H](Cc1ccc2ccccc2c1)C(=O)O; AEF = NCCOc1ccc(C[C@H](N)C(=O)O)cc1; Cit = NC(=O)NCCC[C@H](N)C(=O)O; Pen = CC(C)(S)[C@H](N)C(=O)O; αMeK = C[C@](N)(CCCCN)C(=O)O; Aib = CC(C)(N)C(=O)O
# T1: IL-23R (human, UniProt Q5VWK5 24-629)
# T1 sequence (looked up): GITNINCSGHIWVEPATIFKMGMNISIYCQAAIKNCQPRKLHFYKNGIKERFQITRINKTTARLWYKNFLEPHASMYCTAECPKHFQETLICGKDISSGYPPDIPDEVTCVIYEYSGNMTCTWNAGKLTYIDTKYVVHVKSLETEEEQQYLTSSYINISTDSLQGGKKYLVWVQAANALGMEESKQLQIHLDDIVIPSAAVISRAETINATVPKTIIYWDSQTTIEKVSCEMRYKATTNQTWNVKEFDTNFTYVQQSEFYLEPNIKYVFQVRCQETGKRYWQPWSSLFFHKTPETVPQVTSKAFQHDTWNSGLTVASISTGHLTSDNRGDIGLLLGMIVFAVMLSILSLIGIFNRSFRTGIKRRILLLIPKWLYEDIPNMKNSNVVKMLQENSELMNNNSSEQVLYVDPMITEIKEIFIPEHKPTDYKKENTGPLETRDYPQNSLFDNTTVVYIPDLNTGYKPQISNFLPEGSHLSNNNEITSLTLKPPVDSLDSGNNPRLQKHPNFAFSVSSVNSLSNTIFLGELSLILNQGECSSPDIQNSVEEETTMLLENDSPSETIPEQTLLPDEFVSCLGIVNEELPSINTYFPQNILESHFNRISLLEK
# B1: SEQ ID NO: 258 (peptide)
# peptide: XNTXKXXXXKNF
# modifications: Ac-[Pen]-NT-[W(7-Me)]-[Lys(Ac)]-[Pen]-Phe[4-(2-aminoethoxy)]-[2-Nal]-[a-MeLys]-[Lys(Ac)]-N-[(D)Phe]-NH2; Pen-Pen disulfide
# B2: SEQ ID NO: 345 (peptide)
# peptide: Ac-[Pen]NT[Trp(7-Me)][Cit][Pen][AEF][2Nal][αMeK]K(Ac)N[Aib][dR]-NH2
# modifications: disulfide 1-6
# SMILES: CC(=O)NCCCC[C@H](NC(=O)[C@](C)(CCCCN)NC(=O)[C@H](Cc1ccc2ccccc2c1)NC(=O)[C@H](Cc1ccc(OCCN)cc1)NC(=O)[C@H]1NC(=O)[C@H](CCCNC(N)=O)NC(=O)[C@H](Cc2c[nH]c3c(C)cccc23)NC(=O)[C@H]([C@@H](C)O)NC(=O)[C@H](CC(N)=O)NC(=O)[C@@H](NC(C)=O)C(C)(C)SSC1(C)C)C(=O)N[C@@H](CC(N)=O)C(=O)NC(C)(C)C(=O)N[C@H](CCCNC(=N)N)C(N)=O
# B3: SEQ ID NO: 242 (peptide)
# peptide: XNTXKXXXXKNX
# modifications: Ac-[Pen]-NT-[W(7-Me)]-[Lys(Ac)]-[Pen]-Phe[4-(2-aminoethoxy)]-[2-Nal]-[a-MeLys]-[Lys(Ac)]-N-[bA]-NH2; Pen-Pen disulfide
# B4: SEQ ID NO: 224 (peptide)
# peptide: XNTXQXXXXKXX
# modifications: Ac-[Pen]-NT-[W(7-Me)]-Q-[Pen]-Phe[4-(2-aminoethoxy)]-[2-Nal]-[a-MeLeu]-[Lys(Ac)]-[Sarc]-[bA]-NH2; Pen-Pen disulfide
# B5: SEQ ID NO: 346 (peptide)
# peptide: Ac-[Pen]NT[Trp(7-Me)][Cit][Pen][AEF][2Nal][αMeK]K(Ac)N[Aib][dF]-NH2
# modifications: disulfide 1-6
# SMILES: CC(=O)NCCCC[C@H](NC(=O)[C@](C)(CCCCN)NC(=O)[C@H](Cc1ccc2ccccc2c1)NC(=O)[C@H](Cc1ccc(OCCN)cc1)NC(=O)[C@H]1NC(=O)[C@H](CCCNC(N)=O)NC(=O)[C@H](Cc2c[nH]c3c(C)cccc23)NC(=O)[C@H]([C@@H](C)O)NC(=O)[C@H](CC(N)=O)NC(=O)[C@@H](NC(C)=O)C(C)(C)SSC1(C)C)C(=O)N[C@@H](CC(N)=O)C(=O)NC(C)(C)C(=O)N[C@H](Cc1ccccc1)C(N)=O
# B6: SEQ ID NO: 245 (peptide)
# peptide: XNTXKXXXXKNL
# modifications: Ac-[Pen]-NT-[W(7-Me)]-[Lys(Ac)]-[Pen]-Phe[4-(2-aminoethoxy)]-[2-Nal]-[a-MeLys]-[Lys(Ac)]-N-[(D)Leu]-NH2; Pen-Pen disulfide
# B7: SEQ ID NO: 342 (peptide)
# peptide: Ac-[Pen]NT[Trp(7-Me)][Cit][Pen][AEF][2Nal][αMeK]K(Ac)N[Aib]A-NH2
# modifications: disulfide 1-6
# SMILES: CC(=O)NCCCC[C@H](NC(=O)[C@](C)(CCCCN)NC(=O)[C@H](Cc1ccc2ccccc2c1)NC(=O)[C@H](Cc1ccc(OCCN)cc1)NC(=O)[C@H]1NC(=O)[C@H](CCCNC(N)=O)NC(=O)[C@H](Cc2c[nH]c3c(C)cccc23)NC(=O)[C@H]([C@@H](C)O)NC(=O)[C@H](CC(N)=O)NC(=O)[C@@H](NC(C)=O)C(C)(C)SSC1(C)C)C(=O)N[C@@H](CC(N)=O)C(=O)NC(C)(C)C(=O)N[C@@H](C)C(N)=O
# B8: SEQ ID NO: 252 (peptide)
# peptide: XNTXKXXXXKNK
# modifications: Ac-[Pen]-NT-[W(7-Me)]-[Lys(Ac)]-[Pen]-Phe[4-(2-aminoethoxy)]-[2-Nal]-[a-MeLys]-[Lys(Ac)]-N-[(D)Lys]-NH2; Pen-Pen disulfide
# B9: SEQ ID NO: 344 (peptide)
# peptide: Ac-[Pen]NT[Trp(7-Me)][Cit][Pen][AEF][2Nal][αMeK]K(Ac)N[Aib][dK]-NH2
# modifications: disulfide 1-6
# SMILES: CC(=O)NCCCC[C@H](NC(=O)[C@](C)(CCCCN)NC(=O)[C@H](Cc1ccc2ccccc2c1)NC(=O)[C@H](Cc1ccc(OCCN)cc1)NC(=O)[C@H]1NC(=O)[C@H](CCCNC(N)=O)NC(=O)[C@H](Cc2c[nH]c3c(C)cccc23)NC(=O)[C@H]([C@@H](C)O)NC(=O)[C@H](CC(N)=O)NC(=O)[C@@H](NC(C)=O)C(C)(C)SSC1(C)C)C(=O)N[C@@H](CC(N)=O)C(=O)NC(C)(C)C(=O)N[C@H](CCCCN)C(N)=O
# B10: SEQ ID NO: 347 (peptide)
# peptide: Ac-[Pen]NT[Trp(7-Me)][Cit][Pen][AEF][2Nal][αMeK]K(Ac)N[Aib][dY]-NH2
# modifications: disulfide 1-6
# SMILES: CC(=O)NCCCC[C@H](NC(=O)[C@](C)(CCCCN)NC(=O)[C@H](Cc1ccc2ccccc2c1)NC(=O)[C@H](Cc1ccc(OCCN)cc1)NC(=O)[C@H]1NC(=O)[C@H](CCCNC(N)=O)NC(=O)[C@H](Cc2c[nH]c3c(C)cccc23)NC(=O)[C@H]([C@@H](C)O)NC(=O)[C@H](CC(N)=O)NC(=O)[C@@H](NC(C)=O)C(C)(C)SSC1(C)C)C(=O)N[C@@H](CC(N)=O)C(=O)NC(C)(C)C(=O)N[C@H](Cc1ccc(O)cc1)C(N)=O
# B11: SEQ ID NO: 211 (peptide)
# peptide: XNTXQXXXXKPX
# modifications: Ac-[Pen]-NT-[W(7-Me)]-Q-[Pen]-Phe[4-(2-aminoethoxy)]-[2-Nal]-[a-MeLeu]-[Lys(Ac)]-P-[bA]-NH2; Pen-Pen disulfide
# B12: SEQ ID NO: 220 (peptide)
# peptide: XNTXQXXXXGPX
# modifications: Ac-[Pen]-NT-[W(7-Me)]-Q-[Pen]-Phe[4-(2-aminoethoxy)]-[2-Nal]-[a-MeLeu]-G-[(D)Pro]-[bA]-NH2; Pen-Pen disulfide
# B13: SEQ ID NO: 251 (peptide)
# peptide: XNTXKXXXXKNV
# modifications: Ac-[Pen]-NT-[W(7-Me)]-[Lys(Ac)]-[Pen]-Phe[4-(2-aminoethoxy)]-[2-Nal]-[a-MeLys]-[Lys(Ac)]-N-[(D)Val]-NH2; Pen-Pen disulfide
# B14: SEQ ID NO: 202 (peptide)
# peptide: XNTXQXXXXKNX
# modifications: Ac-[Pen]-NT-[W(7-Me)]-Q-[Pen]-Phe[4-(2-aminoethoxy)]-[2-Nal]-[a-MeLys]-[Lys(Ac)]-N-[bA]-NH2; Pen-Pen disulfide
# Biological target: T1, IL-23R
# Experiment: cell-based or functional assay
row,Binder,pStat3 HTRF (nM) IC50 [nM]
1,B1,< 1
2,B2,< 1
3,Ac-[Pen]NT[Trp(7-Me)][Cit][Pen][AEF][2Nal][αMeK]K(Ac)N[dS]-NH2 (disulfide 1-6 (inferred)) [SEQ ID NO: 261],< 1
4,B3,< 1
5,B4,> 100
6,B5,< 1
7,B6,< 1
8,B7,< 1
9,Ac-[Pen]NT[Trp(7-Me)][Cit][Pen][AEF][2Nal][αMeK]K(Ac)N[dY]-NH2 (disulfide 1-6 (inferred)) [SEQ ID NO: 259],< 1
10,B8,< 1
11,B9,< 1
12,B10,< 1
13,B11,> 100
14,B12,> 100
15,B13,< 1

# Biological target: T1, IL-23R
# Experiment: cell-based or functional assay
# Remark: another data set of the same source
row,Binder,NK Cell Assay (nM) IC50 [nM]
1,B14,< 10
2,B1,< 10
3,Ac-[Pen]NT[Trp(7-Me)][Cit][Pen][AEF][2Nal][αMeK]K(Ac)N[dS]-NH2 (disulfide 1-6 (inferred)) [SEQ ID NO: 261],< 10
4,B3,< 10
5,B6,< 10
6,Ac-[Pen]NT[Trp(7-Me)][Cit][Pen][AEF][2Nal][αMeK]K(Ac)N[dY]-NH2 (disulfide 1-6 (inferred)) [SEQ ID NO: 259],< 10
7,B8,< 10
8,B13,< 10

# — patent US20260116921A1, “PEPTIDE INHIBITORS OF INTERLEUKIN-23 RECEPTOR AND THEIR USE TO TREAT INFLAMMATORY DISEASES” (priority 2018, published 2026)
